IntAct's records for PubMed 26829474

B1: Aurora kinase B (Homo sapiens), Q96GD4 (parent)
chain: MAQKENSYPWPYGRQTAPSGLSTLPQRVLRKEPVTPSALVLMSRSNVQPTAAPGQKVMENSSGTPDILTRHFTIDDFEIGRPLGKGKFGNVYLAREKKSHFIVALKVLFKSQIEKEGVEHQLRREIEIQAHLHHPNILRLYNYFYDRRRIYLILEYAPRGELYKELQKSCTFDEQRTATIMEELADALMYCHGKKVIHRDIKPENLLLGLKGELKIADFGWSVHAPSLRRKTMCGTLDYLPPEMIEGRMHNEKVDLWCIGVLCYELLVGNPPFESASHNETYRRIVKVDLKFPASVPMGAQDLISKLLRHNPSERLPLAQVSAHPWVRANSRRVLPPSALQSVA

Variants of: B1
Details: with 2aaa_human PPP2R1A

| effect of a mutation on the interaction | Variant |
| --- | --- |
| decreasing interaction strength | MAQKENSYPWPYGRQTAPSGLSTLPQRVLRKEPVTPSALVLMSRSNVQPTAAPGQKVMENSSGTPDILTRHFTIDDFEIGRPLGKGKFGNVYLAREKKSHFIVALKVLFKSQIEKEGVEHQLRREIEIQAHLHHPNILRLYNYFYDRRRIYLILEYAPRGELYKELQKSCTFDEQRTATIMEELADALMYCHGKKVIHRDIKPENLLLGLKGELQIADFGWSVHAPSLRRKTMCGTLDYLPPEMIEGRMHNEKVDLWCIGVLCYELLVGNPPFESASHNETYRRIVKVDLKFPASVPMGAQDLISKLLRHNPSERLPLAQVSAHPWVRANSRRVLPPSALQSVA [K215Q] |
